Results published in patent US20190202925A1 (OPI VI IP HOLDCO, published 2019).

T1: monomeric human TNFR2 extracellular domain (human, UniProt P20333 23-257)
T1 construct: extracellular domain; Analyte in the Octet experiments; also called human TNFR2 ECD
T1 sequence (looked up): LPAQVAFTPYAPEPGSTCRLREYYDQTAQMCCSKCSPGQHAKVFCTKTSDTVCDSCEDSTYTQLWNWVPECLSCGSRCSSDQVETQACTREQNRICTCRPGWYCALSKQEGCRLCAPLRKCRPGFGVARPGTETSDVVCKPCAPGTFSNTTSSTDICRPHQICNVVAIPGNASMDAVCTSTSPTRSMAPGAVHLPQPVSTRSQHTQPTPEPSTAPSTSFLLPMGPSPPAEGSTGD

T2: monomeric cynomolgus TNFR2 extracellular domain (cynomolgus monkey, UniProt A0A2K5VET2 132-366)
T2 construct: extracellular domain; Analyte in the Octet experiments; also called cynomolgus TNFR2 ECD; Cyno TNFR2
T2 sequence: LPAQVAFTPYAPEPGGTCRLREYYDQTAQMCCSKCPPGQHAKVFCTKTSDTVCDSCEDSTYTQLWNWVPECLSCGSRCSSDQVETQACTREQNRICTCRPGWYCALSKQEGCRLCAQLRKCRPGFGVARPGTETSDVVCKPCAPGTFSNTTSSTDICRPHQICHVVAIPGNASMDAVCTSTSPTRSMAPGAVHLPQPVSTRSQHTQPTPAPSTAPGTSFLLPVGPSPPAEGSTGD


What was measured:
[1] = target: T1, monomeric human TNFR2 extracellular …; assay: BLI (Octet Red 96), Human TNFR2 Kd (1-1)
[2] = target: T1, monomeric human TNFR2 extracellular …; assay: BLI (Octet Red 96), CHO supernatant antibody on anti-human Fc biosensor, 100 nM monomeric human TNFR2 ECD, 1:1 model
Protocol: Analysis of binding to human TNFR2 ECD was performed using Octet Red 96 instrument (ForteBio). The Octet systems use propriety BLI to analyze biomolecular interaction. CHO supernatants of hSBT-002a, hSBT-002b, hSBT-002c, hSBT-002d, hSBT-002e, and chSBT-002n were diluted to 20 ug/ml based on titers with expression media and immobilized using anti-human Fc biosensors. These were incubated with 100 nM monomeric human TNFR2 in PBS. The experiments comprised of 5 steps: (1) baseline acquisition (60 s); (2) antibodies loading onto anti-human Fc biosensor (120 s); (3) second baseline acquisition (60 s); (4) association of interacting monomeric human TNFR2 ECD protein for kₒₙ measurement (120 s); (5) Dissociation of interacting monomeric human TNFR2 ECD for koff measurement (300 s). Data were analyzed using Octet Data Analysis Software 9.0 (ForteBio) and fitted to the 1:1 binding model. Equilibrium dissociation constants (Kd) were calculated by the ratio of […].

[3] = target: T1, monomeric human TNFR2 extracellular …; assay: BLI (Octet Red 96), antibody captured on Fc biosensor, monomeric TNFR2 ECD in solution, 1:1 model
Protocol: (§1) Analysis of binding to the human and cynomolgus TNFR2 ECD was performed using an Octet Red 96 Instrument™ (ForteBio). […] The experiments were performed using five steps: (1) baseline acquisition (60 s); (2) antibody loading on to anti-human or anti-mouse Fc biosensors (120 s); (3) second baseline acquisition (60 s); (4) association of interacting monomeric human or cynomolgus TNFR2 ECD protein for kₒₙ measurement (120 s); and (5) dissociation of interacting monomeric human or cynomolgus TNFR2 ECD for koff measurement (240-3600 s).
(§2) The interacting monomeric human or cynomolgus ECD was used at 5-6 concentrations of a 3-fold concentration series. The data were analyzed using Octet Data Analysis Software 9.0™ (ForteBio) and fit to the 1:1 binding model. The equilibrium dissociation constants (Kd) were calculated by the ratio of […].

[4] = target: T2, monomeric cynomolgus TNFR2 …; assay: as above
Protocol: as §1, §2

Binder	Kd [1]	Kd [2]	koff [2]	Kd [3]	Kd [4]
chimeric SBT-003 Fc null (antibody, V domains shown, also called chSBT-003n) VH: QIQLVQSGPELKKPGETVKISCKASGYTFTDYSMHWVKQAPGKGLKWMGWINTETGEPTYADDFKGRFAFSSETSTSTAYLQINNLKNDDTTTYFCATYYGSSYVPDYWGQGTSLTVSS VL: DIVMTQSHKFMSTSVGDRVSITCKASQNVGTAVAWYQHKPGQSPKLLIYWTSSRHTGVPDRFTGSGSGTEFTLTISNVQSEDLADYFCHQYSDYPYTFGGGTKLEIK	1 nM	–	–	–	–
hSBT-002b (antibody, V domains shown, Humanized SBT-002; VH fused to human IgG1 Fc null, VL to human Ck; Tested as CHO supernatant) VH: QVTLKESGPALVKPTQTLTLTCTFSGFSLSTSGMGVGWIRQPPGKALEWLAHIWWDDDKFYNPSLKSQLTISKDTSKNQVVLTMTNMDPVDTATYYCARITGTRYFDYWGQGTTVTVSS VL: DVQMTQSPSSLSASVGDRVTITCKASQDINKFIAWYQQKPGKAPKLLIHYTSTLQPGIPSRFSGSGSGTDFTFTISSLQPEDIATYYCLQYGNLWTFGGGTKVEIK	–	2.44 nM	0.000424 s⁻¹	–	–
hSBT-002c (antibody, V domains shown, Humanized SBT-002; VH fused to human IgG1 Fc null, VL to human Ck; Tested as CHO supernatant) VH: QVTLKESGPALVKPTQTLTLTCTFSGFSLSTSGMGVGWIRQPPGKALEWLAHIWWDDDKFYNPSLKSRLTISKDTSKNQVVLTMTNMDPVDTATYYCARLTGTRYFDYWGQGTTVTVSS VL: DVQMTQSPSSLSASVGDRVTITCKASQDINKFIAWYQQKPGKAPKLLIHYTSTLQPGIPSRFSGSGSGTDFTFTISSLQPEDIATYYCLQYGNLWTFGGGTKVEIK	–	2.27 nM	0.000446 s⁻¹	–	–
hSBT-002a (antibody, V domains shown, Humanized SBT-002; VH fused to human IgG1 Fc null, VL to human Ck; Tested as CHO supernatant) VH: QVTLKESGPALVKPTQTLTLTCTFSGFSLSTSGMGVGWIRQPPGKALEWLAHIWWDDDKFYNPSLKSRLTISKDTSKNQVVLTMTNMDPVDTATYYCARITGTRYFDYWGQGTTVTVSS VL: DIQMTQSPSSLSASVGDRVTITCKASQDINKFIAWYQQKPGKAPKLLIYYTSTLQPGVPSRFSGSGSGTDFTFTISSLQPEDIATYYCLQYGNLWTFGGGTKVEIK	–	4.89 nM	0.000722 s⁻¹	–	–
chimeric SBT-001 (antibody, V domains shown, also called chSBT-001) VH: EVQLQQSGAELVKPGASVKISCKASGYTFTDYNMDWVKQSHGKSLEWIGDINPNYESTSYNQKFKGKATLTVDKSSSTAYMEVRSLTSEDTAVFYCARDKGWYFDVWGAGTTVTVSS VL: ENVLTQSPAIMSASLGEKVTMSCRASSSVKNMYWYQQKSDASPKLWIYYTSNLAPGVPARFSGSGSGNSYSLTISSMEGEDAATYYCQQFTSSPYTFGGGTKLELK	–	–	–	1.8 nM	58.3 nM

Other lines, results leading:

Kd [1]	Kd [2]	koff [2]	Kd [3]	Kd [4]	Binder
–	1.73 nM	0.000301 s⁻¹	–	–	hSBT-002d (antibody, V domains shown, Humanized SBT-002; VH fused to human IgG1 Fc null, VL to human Ck; Tested as CHO supernatant) VH: QVTLKESGPALVKPTQTLTLTCTFSGFSLSTSGMGVGWIRQPPGKALEWLAHIWWDDDKFYNPSLKSQLTISKDTSKNQVVLTMTNMDPVDTATYYCARITGTRYFDYWGQGTTVTVSS VL: DVQMTQSPSSLSASVGDRVTITCKASQDINKFIAWYQQKPGKAPKLLIHYTSTLQPGIPSRFSGSGSGRDYTFTISSLQPEDIATYYCLQYGNLWTFGGGTKVEIK
–	1.54 nM	0.000268 s⁻¹	–	–	hSBT-002e (antibody, V domains shown, Humanized SBT-002; VH fused to human IgG1 Fc null, VL to human Ck; Tested as CHO supernatant) VH: QVTLKESGPALVKPTQTLTLTCTFSGFSLSTSGMGVGWIRQPPGKALEWLAHIWWDDDKFYNPSLKSRLTISKDTSKNQVVLTMTNMDPVDTATYYCARLTGTRYFDYWGQGTTVTVSS VL: DVQMTQSPSSLSASVGDRVTITCKASQDINKFIAWYQQKPGKAPKLLIHYTSTLQPGIPSRFSGSGSGRDYTFTISSLQPEDIATYYCLQYGNLWTFGGGTKVEIK
2.5 nM	1.92 nM	0.000361 s⁻¹	–	–	chimeric SBT-002 Fc null (antibody, V domains shown, also called chSBT-002n) VH: QVTLKESGPGILQPSQTLSLTCSFSGFSLSTSGMGVGWIRQPSGKGLEWLAHIWWDDDKFYNPSLKSQLTISKDTSRNQVFLKLTSVVTADTATYYCARLTGTRYFDYWGQGTTLTVSS VL: DVQMTQSPSSLSASLGGKVTITCKASQDINKFIAWYQHKPGKGPRLLIHYTSTLQPGIPSKFSGSGSGRDYSFSISNLEPEDIATYYCLQYGNLWTFGGGTKLEIT
